In the first assay the target is HLA-A*02 (Homo sapiens, UniProt P04439, D140Y/D185E/D98H/E176V/E277Q/G131W/G231S/I119V/I121R/I166T/I218V/N151K/N90K/P208A/P217A/Q86G/Q94H/R138H/R169H). Nature of the assay: UV-ligand exchange / peptide binding to MHC class I (beta2m ELISA). The following applies: Table 10A; peptide exchange yield, UV-ligand exchange, β2m ELISA. The text has this: Candidate peptides for T cell based therapies according to the present invention were further tested for their MHC binding capacity (affinity). The individual peptide-MHC complexes were produced by UV-ligand exchange, where a UV-sensitive peptide is cleaved upon UV-irradiation, and exchanged with the peptide of interest as analyzed. Only peptide candidates that can effectively bind and stabilize the peptide-receptive MHC molecules prevent dissociation of the MHC complexes. To determine the yield of the exchange reaction, an ELISA was performed based on the detection of the light chain (β2m) of stabilized MHC complexes. The assay was performed as generally described in Rodenko et al. (Rodenko B, Toebes M, Hadrup S R, van Esch W J, Molenaar A M, Schumacher T N, Ovaa H. Generation of peptide-MHC class I complexes through UV-mediated ligand exchange. Nat Protoc. 2006; 1(3):1120-32).
96 well MAXISorp plates (NUNC) were coated over night with 2 ug/ml streptavidin in PBS at room temperature, washed 4× and blocked for 1 h at 37° C. in 2% BSA containing blocking buffer. Refolded HLA-A*0201/MLA-001 monomers served as standards, covering the range of 15-500 ng/ml. Peptide-MHC monomers of the UV-exchange reaction were diluted 100 fold in blocking buffer. Samples were incubated for 1 h at 37° C., washed four times, incubated with 2 ug/ml HRP conjugated anti-β2m for 1 h at 37° C., washed again and detected with TMB solution that is stopped with […]. Absorption was measured at 450 nm. Candidate peptides that show a high exchange yield (preferably higher than 50%, most preferred higher than 75%) are generally preferred for a generation and production of antibodies or fragments thereof, and/or T cell receptors or fragments thereof, as they show sufficient avidity to the MHC molecules and prevent dissociation of the MHC complexes.
“5 (ALVEQGFTV; listed as Homo sapiens) [compound 5]”: the “Peptide exchange (MHC class I binding score)” value (shortened to “Peptide exchange”) is reported as “++++ (>=75% = ++++)”.
Still for that read-out and setting: as for “8 (KLLEEATISV; listed as Homo sapiens) [compound 8]”, the entry is “+++ (50%-75% = +++)”; as for “13 (GLIDTETAMKAV; listed as Homo sapiens) [compound 13]”, “++++ (>=75% = ++++)”.

Staying with this assay, now noted: Table 10B; peptide exchange yield; HLA-A*02 peptides.
On to “3 (ILDDNMQKL; listed as Homo sapiens) [compound 3]”, for which the “Peptide exchange” value is listed as ““+++” (≥50 = +++)”.
On the same count and under the same terms, as for “5 (ALVEQGFTV; listed as Homo sapiens) [compound 5]”, the entry is ““++++” (≥75% = ++++)”; as for “8 (KLLEEATISV; listed as Homo sapiens) [compound 8]”, ““+++” (≥50 = +++)”; as for “9 (ALANQKLYSV; listed as Homo sapiens) [compound 9]”, ““+++” (≥50 = +++)”.
On the same count and under the same terms, to “13 (GLIDTETAMKAV; listed as Homo sapiens) [compound 13]” belongs ““++++” (≥75% = ++++)”; to “17 (RVASPTSGV; listed as Homo sapiens) [compound 17]”, ““+++” (≥50 = +++)”; to “18 (ALYGKTEVV; listed as Homo sapiens) [compound 18]”, ““+++” (≥50 = +++)”.
The same measure, in the same setting: as for “19 (FLEETKATV; listed as Homo sapiens) [compound 19]”, the entry is ““+++” (≥50 = +++)”; as for “20 (KLSNVLQQV; listed as Homo sapiens) [compound 20]”, ““++++” (≥75% = ++++)”; as for “21 (QLIEVSSPITL; listed as Homo sapiens) [compound 21]”, ““++++” (≥75% = ++++)”.
Regarding “22 (RIAGIRGIQGV; listed as Homo sapiens) [compound 22]”, the “Peptide exchange” value was ““++++” (≥75% = ++++)”.
Take “23 (RLYDPASGTISL; listed as Homo sapiens) [compound 23]”: the “Peptide exchange” value is ““+++” (≥50 = +++)”.
For the substance “24 (SLAEEKLQASV; listed as Homo sapiens) [compound 24]”, the “Peptide exchange” value is reported as ““+++” (≥50 = +++)”.
“25 (SLDGKAALTEL; listed as Homo sapiens) [compound 25]”: the “Peptide exchange” value was ““+++” (≥50 = +++)”.
The same measure, in the same setting: as for “26 (SLLHTIYEV; listed as Homo sapiens) [compound 26]”, the entry is ““+++” (≥50 = +++)”.
Still for that read-out and setting: as for “27 (TLPDFRLPEI; listed as Homo sapiens) [compound 27]”, the entry is ““++++” (≥75% = ++++)”; as for “28 (TLQDHLNSL; listed as Homo sapiens) [compound 28]”, ““+++” (≥50 = +++)”.
Take “29 (YIQDEINTI; listed as Homo sapiens) [compound 29]”: the “Peptide exchange” value was ““+++” (≥50 = +++)”.
On the same count and under the same terms, to “30 (YLGEGPRMV; listed as Homo sapiens) [compound 30]” belongs ““+++” (≥50 = +++)”; to “31 (YQMDIQQEL; listed as Homo sapiens) [compound 31]”, ““+++” (≥50 = +++)”; to “32 (ALNAVRLLV; listed as Homo sapiens) [compound 32]”, ““++++” (≥75% = ++++)”.
Turning to “33 (LLHGHIVEL; listed as Homo sapiens) [compound 33]”, the “Peptide exchange” value is ““+++” (≥50 = +++)”.
On the same count and under the same terms, as for “34 (SLAEGTATV; listed as Homo sapiens) [compound 34]”, the entry is ““+++” (≥50 = +++)”.
With “35 (SLQESILAQV; listed as Homo sapiens) [compound 35]”, the “Peptide exchange” value is reported as ““+++” (≥50 = +++)”.
The same measure, in the same setting: as for “36 (ILNVDGLIGV; listed as Homo sapiens) [compound 36]”, the entry is ““+++” (≥50 = +++)”.
Same read-out and setting: as for “37 (LLLPLLPPLSP; listed as Homo sapiens) [compound 37]”, the entry is ““+++” (≥50 = +++)”; as for “38 (ALADVVHEA; listed as Homo sapiens) [compound 38]”, ““+++” (≥50 = +++)”.
On the same count and under the same terms, as for “39 (ALDPKANFST; listed as Homo sapiens) [compound 39]”, the entry is ““+++” (≥50 = +++)”.
For the substance “40 (ALLAEGITWV; listed as Homo sapiens) [compound 40]”, the “Peptide exchange” value was ““+++” (≥50 = +++)”.
Consider “41 (ALLELDEPLVL; listed as Homo sapiens) [compound 41]”, for which the “Peptide exchange” value was ““++++” (≥75% = ++++)”.
“42 (ALLGGNVRMML; listed as Homo sapiens) [compound 42]”: the “Peptide exchange” value was ““+++” (≥50 = +++)”.
Take “44 (ALQDAIRQL; listed as Homo sapiens) [compound 44]”: the “Peptide exchange” value is listed as ““++++” (≥75% = ++++)”.
On the same count and under the same terms, to “45 (ALQDQLVLV; listed as Homo sapiens) [compound 45]” belongs ““++++” (≥75% = ++++)”; to “46 (AMAEMKVVL; listed as Homo sapiens) [compound 46]”, ““+++” (≥50 = +++)”; to “47 (FLDTPIAKV; listed as Homo sapiens) [compound 47]”, ““++” (≥20% = ++)”.
For the substance “48 (FLLEQPEIQV; listed as Homo sapiens) [compound 48]”, the “Peptide exchange” value is given as ““+++” (≥50 = +++)”.
Regarding “49 (FLYPEKDEPT; listed as Homo sapiens) [compound 49]”, the “Peptide exchange” value was ““++” (≥20% = ++)”.
On the same count and under the same terms, as for “50 (FTIPKLYQL; listed as Homo sapiens) [compound 50]”, the entry is ““++” (≥20% = ++)”.
Take “51 (GLAEELVRA; listed as Homo sapiens) [compound 51]”: the “Peptide exchange” value is ““++” (≥20% = ++)”.
Still for that read-out and setting: to “52 (GLFNAELLEA; listed as Homo sapiens) [compound 52]” belongs ““+++” (≥50 = +++)”.
On to “53 (GLIHLEGDTV; listed as Homo sapiens) [compound 53]”, for which the “Peptide exchange” value is listed as ““+++” (≥50 = +++)”.
For the substance “54 (GLLDPNVKSIFV; listed as Homo sapiens) [compound 54]”, the “Peptide exchange” value was ““+++” (≥50 = +++)”.
The same measure, in the same setting: as for “55 (GLYGRTIEL; listed as Homo sapiens) [compound 55]”, the entry is ““+++” (≥50 = +++)”.
Still for that read-out and setting: as for “56 (GVLPGLVGV; listed as Homo sapiens) [compound 56]”, the entry is ““+++” (≥50 = +++)”.
Same read-out and setting: as for “57 (HLTEAIQYV; listed as Homo sapiens) [compound 57]”, the entry is ““+++” (≥50 = +++)”; as for “58 (ILADLNLSV; listed as Homo sapiens) [compound 58]”, ““++++” (≥75% = ++++)”.
“59 (ILADTFIGV; listed as Homo sapiens) [compound 59]”: the “Peptide exchange” value is ““+++” (≥50 = +++)”.
The same measure, in the same setting: as for “60 (ILSPLSVAL; listed as Homo sapiens) [compound 60]”, the entry is ““++++” (≥75% = ++++)”.

The values above are taken from patent US10064926B2, “Peptides and combination of peptides for use in immunotherapy against hepatocellular carcinoma (HCC) and other cancers” (Immatics biotechnologies GmbH, priority 2014, dated 2018).
